The values that follow are results of earlier work, collected in patent publication US20040071657A1, “Chemoattractant recruitment of dendritic cells for enhancement of immunization” (priority 2003, published 2004).

For this data set, the system named is circulating DC. The note with it: in vivo administration to mice.

B1: Flt3-L: Flt3 ligand, a growth factor polypeptide that promotes dendritic cell growth (protein, UniProt P49771 27-235, looked up)
Fms-related tyrosine kinase 3 …: TQDCSFQHSPISSDFAVKIRELSDYLLQDYPVTVASNLQDEELCGGLWRLVLAQRWMERLKTVAGSKMQGLLERVNTEIHFVTKCAFQPPPSCLRFVQTNISRLLQETSEQLVALKPWITRQNFSRCLELQCQPDSSTLPPPWSPRPLEATAPTAPQPPLLLLLLLPVGLLLLAAAWCLHWQRTRRRTPRPGEQVPPVPSPQDLLLVEH
In the case of B1, the “increase in the number of circulating DC” value was 10-30 fold.
